Test results taken from the DeepSol protein solubility set.

test: soluble on expression in E. coli; label from the status in PepcDB or PDB records

Sequence	soluble on expression in E. coli
MEAFIRSDQYNFIKSQAYILANGHATANDRGVIQALKSLAIEKIIHVFENLTDEQKELIDTVLTVQNREDAESFLTKINPYVIPFQEVTAQTLKKLFPKAKKLKLPDMEEMDMKEISYLSWVDKGSSRKFIIAKNDKNKFVGLQGTFQSLNKKSICSLCHGHEEVGMFLVEIKGDIPGTFVKKGNYICKDGVACNQNMKSLDKLQDFIERLKK	not soluble
MGSDKIHHHHHHASGFTLGKDILSYVAVGDSFTEGLDDPYPDSARFPQGRYRGWADRFAEHLARHVREVRYANLAVRGKLLRQILTEQLPRAVELRPDLVTLCAGGNDILRPGSDPDTLADAFEGAVRQLRDTGADVVIFTGFDTGFQPVMRHLRGKIATYNMHLRGIADRYHCRVVDLWSMKIFQDRRAWSDDRLHLSAEGHRRLALRVCEVMGVPVDEDWNAPWPQEPPAPWHQARQEDLRWARQHLVPWIHRRLTGRSSGDGVRPKRPNLEPLVRR	not soluble
VAYWLVKSEPSVWSWDQQVAKGAAGEAWTGVRNHSAKLHMVAMRRGDRAFYYHSNEGKEIVGIAEIIREAYPDPTDASGKFVCVDIKADKPLKTPVTLAAVKAEPRLADMALMKYSRLSVQPVTAEEWKLVCKMGGLLEHHHHHH	soluble
MAESMQSKPSFEYPKRAAIGSYWSNRNRDEKHFKNLGPASLSSASAGKVMQWMLSHTCNGVPKPKGGYDAFGKIWYAPCNMAESVAQWRASMSNDEAQPAKNRVYWIGHSSQLLCLSNGINILFDPIFSQRASPLSFAGPSRRFPPAATAAQLPPIHIVTVSHNHYDHMDKQSIKAVAARFPDAHFVVPLKLDRFLREWGVPGASITTLDWYEACEVKGVRVGCTPAQHWGKHSAFDDNEVLWCGWCVGWQPGQQQQPASTCEKPTLISFSGIEPSSEALVEAQRTWNRYKKYFFAGDTAYNPDVSTSIYAHFGPMDMAALPIGAYSPRWFMARAHIDPEHAVQIFKDQHIQQAVAVHWGTFELADEPLDEPPQVLRKTLKDASIDENRFQIIPMGKFIEF	soluble
MGHHHHHHSHMTKLPPIEQLLPHDKPMILVDRAMDIQQDTIHCQVDIAEHNPFFDSASQTVPAYVGIEFMAQSVAAWSGYHALMKEQAPPIGFLLGSRRYTSECDAFSRGQMLDVYAEKVMEDNGMAVFSARIELQGTVVATCQLNVYVPSEEKLQEMKIRSQQ	not soluble
MGSDKIHHHHHHMEIKGKVHYVGVNDRNKALFENLWPLPYGVSYNSYLIDDEMVALVDTVDVCYFEVYLKKIRSIIGDKPINYLIINHMEPDHSGSISLIKQYYPNIVIVGNKKTFEMIEGYYGVGGERYVVGEGDFLALGHHRLRFSLIPMVHWPETMVTFDETEGILFSGDAFGCFGALNGGVVDTNINTDIYWNEMVRYYSNIVGKYGAPVQKALQKLQNLKITTVCSTHGPVWTEEIPRVVRIYDRLSRYEAEEGVVIAYGSMYGNTEEVAEAIAEELSKQGIRNIVMHNVSHTSHSFIIADVFKYKGLIVGCPTYNTQMYPEMEALLSKLASREIKGRYLGYFGSFTWASAAVKKIAEFNDKLKFEPVGNPVEMKHSMKAETNTQAKELAKAMADRLKADRK	not soluble
MLRPPMTKLVISNRESHRECEQVLQIGECAIVRSSSGEPWQLLNNGNSDSIDYALLQDILYEGYRLSTIYNIKSHTKSMKRLRRKLASIFSNSNFLLPLSKDGSSSSSQPHFYLSPSNSSLFDARKSSRSRGAVIKSPSTINIEKNRHSSNSGENQKMRLNLSMSTGNLCRAGVVRTPYPTSKQLHFDNDDGDEEDDTDDEGEADLVSIKTRSGRRNVLKSPPPPERIPSSMGASDAEEIDIKSHMKPLSVKIPANIFKTPTLDIPVDDDAEIDADVFPLPPPTPVNLKHGLFSIPSGRNSESARSRQTKRSPFGSVTSRTSSLDRRMSLSCLEDTSNYQKTQYLVFPLRTSSKKPYLLKFPEDMQEEDEKHNGSVWGSDTSLEEEIKV	not soluble
KQGQTALGVEFGSTRIKSVLIDANNFEVLASGSFEWDNQLVNGIWTYSLDDVWKGLQASYTDLKAEVKDKYDFKLSKIGQIGISAMMHGYLVFDQADKQLAEFRTWRNAITEQAAGELSKLFNFNIPQRWCIAHLYQAILNQEKSVSQIDFMTTLAGYVHWRLTGKKVTGIGDASGIFPIDSNSKDYDQKKLDQFSDLDGVEKQPWDIKRILPKVLLAGQNAGQLTKEGSLLIDPSGDLQDGSVFCPPEGDA	not soluble
MGLSCALTSGLSLRCFSNTPARLSCGAGILHCSKLCLSGFGDPAQGRLHNANHGAVRLHGTVTAFKHRRGYGFVLAEGVAASAPPLKHTYVALDTHAAAARNNGVPPAREEACNELHKSFFFTRSALMGGFYVTEGERVSFAVVAVPPGKGINRRVAGDSPSTRKDDGDHAALGGAETAEFLLGSPEGELEEDSSAATSDTQSQLHRIAVSLRYYDAKTGKETPISPLTLYGKIVEWDAAAGVGVIAELDTRRQYHEDAPRFPFSLESVDLALGTELRSGRYVRFCLEPATHAQGGGGEDTAAAVTPTSGAEAAADVDEDVELVAQRVIIDSSMERRKGVFGRPLVLADAAPGTMTSESRFSGVVREVKADHFGFIQDDLSGESIFFHLSNASSRVKAGDRVTYLLREVEYGKHTGKKACFDVLIDQTVTSRARDAASDCGASAGAGNAGGHHRKHAAERRSKTARDEDDLDFELL	not soluble
MSHVNQAVSCIFCYFQEMSFVCGISGELTEDPVVSQVSGHIFDRRLIVKFIAENGTDPISHGELSEDQLVSLKSGGTGSAPRNVSGTSIPSLLKMLQDEWDTVMLNSFSLRQQLQIARQELSHSLYQHDAACRVISRLSKELTAAREALSTLKPHTSAKVDDDVSIDESEDQQGLSEAILAKLEEKSKSLTAERKQRGKNLPEGLAKTEELAELKQTASHTGIHSTGTPGITALDIKGNLSLTGGIDKTVVLYDYEKEQVMQTFKGHNKKINAVVLHPDNITAISASADSHIRVWSATDSSSKAIIDVHQAPVTDISLNASGDYILSASDDSYWAFSDIRSGKSLCKVSVEPGSQIAVHSIEFHPDGLIFGTGAADAVVKIWDLKNQTVAAAFPGHTAAVRSIAFSENGYYLATGSEDGEVKLWDLRKLKNLKTFANEEKQPINSLSFDMTGTFLGIGGQKVQVLHVKSWSEVVSLSDHSGPVTGVRFGENARSLVTCSLDKSLRVFSF	not soluble
MKIAMLGSLGNINRIVVPKLVQAGHDVTVISTSPKRQASIEAIGAHAAIGTMTDVDFLSTTFTDKDVVYLMLSGGIGDDPFEGAVAQAKIWKQAIENAGVTNVVNLSSIGADADEVAGSLHAYNLIEHELRQLDGVNLAFVRPTGFYANLFGNLATIKAEHKIYSSTPAASAQKYVAPEDIASVVYPLIDHTPAGITVKYAFSDTFTGDQFVADLRDALNMPDLQWVQISDEQYQANLTNHGVPVKIAASLVQTSRYQREPEGLYADLNASDTSAGQVKLADFVRTFVVAYNSEGGYQSHTIAD	not soluble
GTIVITGTITDQTCTIEDPSPGYIKVVHLPTISKSALKNAGDVAGRTRFDIKLKDCPTTVNTLKLYFEPGPTTDYGTKDLKAYKQAWYVDAATLLKSPPSVTEAKGVQIRLMNLNGKQIPMGETEPNQHAAAFSGTMQAGQAKKSFTLHYLAGYVKKASGEVEATMLTTYVGFSVVYP	not soluble
MGSDKIHHHHHHMPFVRLDVRRPGHADRIVYVPVTTRTSYLLKSSEGGMVLRFDRGDVVAARVRPLNIGDVGALLSRRRRHKRFQLPLGRGAVLQPLLHISGPEGRELARALGSLAGWGFGTASDNLQKTLSRHFNGPQAEAPERLPTVEPKIAVALHLHYPDLWPEFEALLEATGRQFQLFLTLTRPDAALAQRVQARFPGAEITVYENRGRDVGPFIQLLREGKFDPFDLICKLHGKKSGQSGPRMVLGEIWRQVSAFDLIGSRGVVDRIIANFERSPDTQMIGSRRFRLPNEWKGEKSAWGENRAMALNLLETMGMPSSSRLDFFAGTMFWVRRGALEPLRRLDLPLAAFPEETGQQDGTLQHALERVLGMICTKIGVASDGDMTTDSREADPIG	not soluble
MSLKEGAWGIIGVPFDSTTSYHPGSRFGPIVVREASYGFEKYNTIFNTQLDNIFYDFGDVNVVFGNCKKTCDIIEDTVNELSDLKIKPLTIGGEHSLTIGVLNSLTKKYDDLTVVHLDAHRDLADTFIGELYSHASVMKRVHEMGVKELVQIGIRSASKEEEDFVKNQSNITTFKNNDVFHHLDNIEYYLSIIDTPIYLSIDMDVFDPSIAPTVGNPTPNGIAYGHIEAMLQTLSLKNVVGMDVVETAGDRLGDITAVSASKIIYDFLSLLEGHHHHHH	not soluble
MSLIMKVVVKVGSNLLVGSSGLRKSYIAELCREVARLKSQGHEISIITSGARAAGFTYLGKGKRTQDLHIKQALCAVGQVQLMKVYENAFDFYGIKIAQILLTRDTFSNRKRYLNLRNTLIGLSEFDVVPIVNENDTVATEEITLGDNDTLAAMFSIAWDADFLVLFTTVDGVIDENGKLVERFDESVKLKDMGKSSWGTGGIRSKIESALMASRCGVKATICSGNDVSNLTRFVKGEPVGTVFEPQGRLKAKKAWIAFLSEPAGKIYVNKGAEEALKSGNSLLPVGVTGVEGTFDVGDVVEIVNEEGELVGRGIVNYSSSDLEKIAGHKSSDLKKILGYEGNKVVVHIDNMWVAEGHHHHHH	soluble
KTKNEPKVILELAKESDLPEFQKKLQEAFAIAVIETFGDCEDGPIPSDNDVQESFNAPGAVVYHILQDGKNVGGAVVRINSQTNHNSLDLFYVSPEYHSQGIGLSAWKAIEAQYPDTVLWETVTPYFEKRNINFYVNKCGFHIVEFYNEHHSNPHMHRNGR	soluble
MGSDKIHHHHHHMGQSSEDAAMTLQPFDGFGLGLRPPHYRAFLDSERPLVDFVEVISENFMVGGGRPLHVIDAVRERYPVALHGVSMSVGSADGVKLDYLRRLKGLADRVDPMWVSDHLCWTGVEGFNSHDLLPVPYTEEAMAVVCANIALAQDVLERPLLLENPSSYVTFANDAMAEHQFLAEMCARTGCYLLLDINNIYVSASNHGFDPYEYLAAVPVDRVLQIHLAGHSQGRELLIDTHDQPVPDSVWALYEAAAGRFGPVAAMIERDDDIPPLDDLLAELDVARARWAAGRRGSLAA	not soluble
MATMDEKPLYGLERTVFRQLLHLFSRYADVIEKVILFGSRARGDYKEGSDIDLAIKFRKPGGPLYLLQSDLDELPIIYPIDVVDYNQIHNEQLKMNIDQEGKTIFQTNEHGKVMVTMSRLMDRFYDFERALSKLRQSAARDAQTDDLVVDATIQRFEFTYELAWKWMKLYLEHQGYAEVTSPRKTIREAFREGLIQDGETWLRMLEDRNRTSHTYDEETAMDIYERIRIHYIPLFDRLLDEMKQRLDSAT	not soluble
MMRGASKRSISSAAVLLIKKNKLPPRPKFTPEMEAQCTEKFLHGGRGPGGQKINKCNSKVQLRHEPTGIVVECQETRSREQNRKLARLKLARELAASYDTMPSREEALLQWHRQQKRSQRRRSVAKYEQREEAARVEKEEREARDREMVRELFRR	soluble
MLNEKAIQDVDLYFQNIHGPEGRLASNETFDIVPGLSKDGAVQYQTYQFNEAPKHLQKQVKAGRILMERFVAVASAAVNKKAPSNKEKYHYDIWKEVSNQLIPAFFTDPIKGEQNLNTTVKGVEVAKSVIQFAGNVIAGNVTGFATFLQNFGNGLSAEMNKTQANYNYLYAYSTHDLFQDTSGNVFYKPRFLIYGTHFKQEQKKIATSCASYQEVNLEFGVDTVGGTFRIEEYFSNETFKKKVDNFLDKYEGKAIDDADSYFDDIFNGVKPNKNYVYHHHHHH	soluble
